Experimental data reported in IntAct's records for PubMed 9341158.

Tests used:
[1] = molecular target: ap1m1_human AP1M1 (UniProt Q9BXS5)
[2] = molecular target: ap2m1_rat Ap2m1 (UniProt P84092)
ap2m1_rat Ap2m1, sequence (P84092 whole entry): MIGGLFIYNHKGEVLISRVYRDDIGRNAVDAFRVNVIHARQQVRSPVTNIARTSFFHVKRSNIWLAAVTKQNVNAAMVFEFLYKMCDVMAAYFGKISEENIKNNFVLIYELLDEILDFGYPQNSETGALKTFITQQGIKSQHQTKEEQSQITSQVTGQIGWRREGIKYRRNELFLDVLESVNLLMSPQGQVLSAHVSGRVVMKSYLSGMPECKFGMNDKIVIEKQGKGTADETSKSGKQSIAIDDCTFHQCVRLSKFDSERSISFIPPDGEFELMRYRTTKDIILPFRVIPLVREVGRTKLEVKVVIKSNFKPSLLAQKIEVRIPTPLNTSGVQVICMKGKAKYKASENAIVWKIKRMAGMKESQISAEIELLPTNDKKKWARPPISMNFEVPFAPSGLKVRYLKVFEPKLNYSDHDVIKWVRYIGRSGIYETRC

Trans-Golgi network integral membrane protein TGN38 (Rattus norvegicus (Rat)), P19814 Y350A, sequence (P19814 whole entry Y350A): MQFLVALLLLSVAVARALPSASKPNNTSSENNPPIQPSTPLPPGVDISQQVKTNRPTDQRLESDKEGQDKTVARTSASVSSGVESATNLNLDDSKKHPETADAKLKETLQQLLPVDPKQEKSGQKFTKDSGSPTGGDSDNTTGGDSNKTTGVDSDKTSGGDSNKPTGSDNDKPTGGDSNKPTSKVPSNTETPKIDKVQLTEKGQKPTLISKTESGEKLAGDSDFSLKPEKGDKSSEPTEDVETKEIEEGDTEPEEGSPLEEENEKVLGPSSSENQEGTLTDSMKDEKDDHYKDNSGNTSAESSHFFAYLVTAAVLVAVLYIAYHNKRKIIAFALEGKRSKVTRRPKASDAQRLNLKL
ap1m1_human AP1M1, sequence (Q9BXS5 whole entry): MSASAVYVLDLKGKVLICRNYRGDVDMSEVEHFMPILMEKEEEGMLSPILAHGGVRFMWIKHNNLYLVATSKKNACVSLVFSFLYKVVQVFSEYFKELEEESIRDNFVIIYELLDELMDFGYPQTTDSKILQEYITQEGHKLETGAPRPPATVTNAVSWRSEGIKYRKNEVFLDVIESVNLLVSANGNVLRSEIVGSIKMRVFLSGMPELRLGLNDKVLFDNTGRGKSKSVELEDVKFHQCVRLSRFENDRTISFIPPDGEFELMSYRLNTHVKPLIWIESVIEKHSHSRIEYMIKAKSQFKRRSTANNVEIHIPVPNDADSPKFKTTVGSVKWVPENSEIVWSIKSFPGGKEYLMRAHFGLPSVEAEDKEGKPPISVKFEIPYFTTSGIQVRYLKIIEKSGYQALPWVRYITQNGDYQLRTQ

effect of a mutation on the interaction [1]: decreasing interaction | effect of a mutation on the interaction [2]: decreasing interaction
Substance: Trans-Golgi network integral membrane protein TGN38 (Rattus norvegicus (Rat)), P19814 Y350A
